# Measurements reported in article PMC12008863 (Journal of Translational Medicine, 2025).
# B1: Heterogeneous nuclear ribonucleoprotein A2B1 (human, amino acids 12-195, recombinant) (domain or fragment)
# chain: RKKREKEQFRKLFIGGLSFETTEESLRNYYEQWGKLTDCVVMRDPASKRSRGFGFVTFSSMAEVDAAMAARPHSIDGRVVEPKRAVAREESGKPGAHVTVKKLFVGGIKEDTEEHHLRDYFEEYGKIDTIEIITDRQSGKKRGFGFVTFDDHDPVDKIVLQKYHTINGHNAEVRKALSRQEMQE
# Legend:
# [1] = biological target: T1, Transthyretin (human, amino acids 21-147, recombinant) (human, UniProt P02766 21-147); assay: Langmuir equilibrium adsorption
# [2] = biological target: T1, Transthyretin (human, amino acids …); assay: SPR
binder,measurement,setting,value
B1,Kd,[1],7.13 µM
same,Kd,[2],3.68 µM
